Results reported in US20050209141A1.

T1: human angiotensinogen (Sigma), P01019
T1 chain: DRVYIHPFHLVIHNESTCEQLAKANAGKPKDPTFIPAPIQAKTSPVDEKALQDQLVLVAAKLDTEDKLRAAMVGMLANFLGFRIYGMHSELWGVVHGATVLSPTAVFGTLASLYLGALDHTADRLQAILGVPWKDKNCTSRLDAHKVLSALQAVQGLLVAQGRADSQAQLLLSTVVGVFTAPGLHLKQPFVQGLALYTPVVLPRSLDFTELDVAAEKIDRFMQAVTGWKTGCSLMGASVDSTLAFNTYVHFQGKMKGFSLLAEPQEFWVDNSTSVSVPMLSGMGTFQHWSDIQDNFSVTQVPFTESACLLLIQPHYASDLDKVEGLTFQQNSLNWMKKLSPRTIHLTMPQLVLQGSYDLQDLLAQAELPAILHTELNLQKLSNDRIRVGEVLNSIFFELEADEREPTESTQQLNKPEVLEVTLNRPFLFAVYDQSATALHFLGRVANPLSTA


Key:
[1] = target: angiotensin II receptor (AT1AR) transfected into human neuroblastoma SH-SY5Y cells (SH-SY5Y-AT1A cells); assay: cell-based or functional assay
[2] = target: guinea pig angiotensin type 1 receptor on cardiac sympathetic nerve endings (guinea pig); assay: cell-based or functional assay
[3] = target: T1, human angiotensinogen (Sigma), P01019

Row | release of [3H]MPP+ from SH-SY5Y-AT1A cells [1] | norepinephrine release from guinea-pig cardiac sympathetic nerve endings [2] | Molecule | ANG I activity of HMC-1 releasate with 240 nM angiotensinogen, with or without BILA2157 [3] | ANG I formed (renin activity) by RIA [3] | ANG I formed (renin activity) by RIA, with or without BILA2157 (100 nM) [3]
1 | 20% | 27% | angiotensin II (peptide) | – | – | –
2 | – | – | human renin of the human mast cell line HMC-1 (cells, lysate and releasate) (protein) LTLGNTTSSVILTNYMDTQYYGEIGIGTPPQTFKVVFDTGSSNVWVPSSKCSRLYTACVYHKLFDASDSSSYKHNGTELTLRYSTGTVSGFLSQDIITVGGITVTQMFGEVTEMPALPFMLAEFDGVVGMGFIEQAIGRVTPIFDNIISQGVLKEDVFSFYYNRDSENSQSLGGQIVLGGSDPQHYEGNFHYINLIKTGVWQIQMKGVSVGSSTLLCEDGCLALVDTGASYISGSTSSIEKLMEALGAKKRLFDYVVKCNEGPTLPDISFHLGGKEYTLTSADYVFQESYSSKKLCTLAIHAMDIPPPTGPTWALGATFIRKFYTEFDRRNNRIGFALAR | about 70% of the ANG I activity measured in the presence of 240 nM angiotensinogen, is due to BILA2157-sensitive renin | The amount of ANG I formed increased with angiotensinogen concentration. | ˜70% of the total ANG I formed originates from renin
